Results taken from the nanobody polyreactivity screen of Harvey et al. (2022).

Test: yeast display, Sf9 membrane polyspecificity reagent, FACS + sequencing; frameworks hold sequencing errors
Method in brief: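 Polyreactivity labels are assigned by the sorting gate from which each nanobody was recovered. The gates were low and high (top ~1%), set on anti-HA fluorescence for expression and streptavidin fluorescence for reagent binding. Before sorting, galactose-induced (36–48 hours) yeast display cells were stained for 1 hour at 4 °C with 10% biotinylated, detergent-solubilized Sf9 membrane reagent.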

| Sequence | polyreactivity (PSR sort gate) |
| --- | --- |
| QVKLVESGGGLVQAGGSLRLSCAASGNILGYNAMGWYRQEPGKERELVAAITQSGGSTYYADSVKGRFTISRDNAKYSVYLQMTSLKPEDTAVYDCAVDCGPFYDPFGYWGQGTQVTVSS | low polyreactivity |
| QVQLVESGGGLVQAGGSLRLSCAASGSILRPNVMGWYRQAPGKERELVARISSRGVNTYYADSVKGRFTLSRDNAKNTVYLQMHSLKPEDTAVFYCNARRAQYYWNRSAKYDYWGQGTQVTVSS | high polyreactivity |
| QVQLVESGGGLVQAGGSLRLSCAASGRTIYYYAMGWYRQAPGKEREFVAAISWHGGSTYYADSVKGRFTISRDNAKNNVYLQMNSLKPEDTAVYYCAADIYLRGFHYDYWGQGTQVTVSS | low polyreactivity |
| QVQLVESGGGLVQAGGSLRLSCAASGFIFDSNPIGWYRQAPWKEREVVAAISSSGGSTYYADSVKGRFTISRDNAKNTVYLQMKSLKPEDTAVYYCGAESQRFISSSEVYWGQGTQVTVSS | low polyreactivity |
| QVQLVESGGGLVQAGGSLRLSCAASGRTFGVKAMGWYRQAPGKERELVAAITSGGTTNYADSVKGRFTISRDNAKNTFYLQMNSLKPEDTAVYYCAARSYYPRYGYWGQGTQVTVSS | high polyreactivity |
| QVQLVESGGGLVQAGGSLRLSCAASGSIFRPNAMGWYRQAPGKERELVAAITFRGSRTYYADSVKGRFTISRDNAKNPVYLQMNSMKPEDTAVYYCNRLAGQDQEFEYWGQGTQVTVSS | high polyreactivity |
| QVQLVESGGGLVQAGGSLRLSCAASGNTFKTNAMGWYRQAPGKERELVAAISSSGSTYYADSVKGRFTISRDNAKNTVYLQMNSLKPEDTAVYYCAVTYRRFYYWGQGTQVTVSS | high polyreactivity |
| PVQLVESGGGLVQAGGSLRLSFAASGRTFWVYAMGWYRQAPGKERELVAAINRRGGGTYYADSVKGRFTISRDNAKNTVYLQMNSLKPEDTPVYYCAAVTRNQGSYRYYYWGQGTQVTVSS | high polyreactivity |
| QVQLVESGGGLVQAGGSLRLSCAASGSILYAYAMGWYRQAPGKERELLAAISSSGGGTYADSVKGRFTISRDNAKNTVYLQMNSLKPEDTAVYYCNADARGGIYFRGVKFDYWGQGTQVTVSS | high polyreactivity |
| QVQLVESGGGLVQAGGSLSLSCAASGSIFSYYDMGWYIQAPGKERELVAGISRGGSTNYADSVKGRFTISRDNAKNTVYLQMNSLKPEDPAVYYCNADYIFWLTLFDYWGQGTQVTVSS | low polyreactivity |
| QVQLVESGGGLVQAGGSLRLSCAASGFIFGNYALGWYRQAPWKERELVAGISGTGGSTYYADSVKGRFTISRDNAKNTVYLQMNSLKPEDTAVYYCAARIFKRQSFDYWGQGTQVTVSS | high polyreactivity |
| QVQLVESGGGLVQAGGSLRLSCAASGSIFKQNAMGWYRQAPGKERELVADITSSGGSTYYADSVKGRFTISRDNAKNTVYLQMNSLKPEDTAVYYCAADGNGVDYDYWGQGTQVTVSS | low polyreactivity |
| QVQLVESGGGLVQAGGSLRLSCAASGITFGRNAMGWYRQAPGKERELVAAISRGGSTNYADSVKGRFTISRDNAKNTVYLQMNSLKPEDTAVYYGNARSWPHGSWIPIHRRSGYWGQGTQVTVSS | high polyreactivity |
| QVQLVESGGGLVQAGGSLRLSCAASGSIFSFYTMGWYRQAPGKERELVATISWRSGSTYYADSVKGRFTISRDNAKNTVYLQMNSLKPEDTAVYYCARSTSRYYYWGQGTQVTVSS | high polyreactivity |
| QVQLVESGGGLVQAGGSLRLSCAASGSTFVYYAMGWYRQAPGKERELVAAISTSAGSTYYADSVKGRFTISRDNAKNTVYLQMNSLKPEDTAVYYCAASRKRRRYGSISGGYWGQGTQVTVSS | high polyreactivity |
| QVQLVESGGGLVQAGGSLRLSCAASVFLPYTMGWYRQAPGKERELVAAITRGGSTYYADSVKGRFTISRDNAKNTVYLQMNSLKPEDTAVYYCAKRSTFAWRGYDYWGQGTQVTVSS | high polyreactivity |
| QVQLVESGGGLVQAGGSLRLSCAASGRTFRYYTMGSYRPAPGKEREFVAAISSTGGTYYADSVKGRFTISRDNAKNTVYLQMNSLKPEDTAVYYCAKVYFWGALSPDKYDEDYWGQGTQVTVSS | low polyreactivity |
| QVQLVESGGGLVQAGGRLRLISAASGSIFYYNAMGWYRQAPGKERELVAAISWSADSTYYADSVKGRFTISRDNAKNTVYLQMNSLKPEDSAAYYCNTDLVPWTEYWYDYWGQGTQVTVSS | low polyreactivity |
| QVQLVESGGGLVQAGGSLRLSCAASGRTFVYYAMGWYRQAPGKERELVAAISTGGSTNYADSVKGRFTISRDNAKNTVYLQMNSLKPEDTAVYYCAAQYYISISKYDYWGQGTQVTVSS | low polyreactivity |
| QVQLVESGGGLVQAGGSLRLSCAASGFTFGYYAMGWYRQAPGKERELVGAINWSGGRTYYADSVKGRFTISRDNAKNTVYLQMNSLKPEDTAVYYCAASAHYDGDYWGQGTQVTVSS | high polyreactivity |
| QFHLVESGRDFVQAAGSLLLSCAASASIFRYYTMGWYRQAPGKETELVATITDRGTSTYDADSVKGRFTLSRESV | high polyreactivity |
| QLQLVESGRGLVQAGGSLRLSCDASGYIFGWYAMGSYRQAPGKERELVAAITRGVSTNYADSVKGRFTISRENAMNTVYLQMNSLKPEDTAVYYCNTEDWAVGSPEVEYEYDYWGQGTQVTVSS | low polyreactivity |

| Sequence | polyreactivity (PSR sort gate) |
| --- | --- |
| QVQLVESGGGLVQAGGSLRLSCAASGRIFRGNAMGWYRQAPGKERELVAAILTGVSTYYADSVKGRFTISRDNAKNTVYLQMNSLNPEDTAVYYCADERPSRRSVYEYWGQCTQVTVSS | low polyreactivity |
| QVQLVESGGGLVQAGGSLRLSCAASGSIFGYYPMGWYRQAPGKERELVAAITSGGNTYYADSVKGRFTISRDNAKNTVYLQMNSLKPEDTAVYYCNAVWRTRDYDYWGQGTQVTVSS | low polyreactivity |
| QVQLVESGGGLVQAGGSLRLSCAASGRIFVSYAMGWYRQAPGKERELVAAISRGGSTYYADSVKGRFTISRDNAKNTVYLQMNSLKPEDTAVYYCAARPSYRYGYWGQGTQVTVSS | high polyreactivity |
| QDQLVESGGGLVQAGGSLSLSCAASGLIFSDNAMGWYRQAPGKERELVATITFSGSTNYADSVKGRFTISRDNAKNTVYLQMNSLKPEDTAVFFCAADAGGGPFEYWGQGTHVTVSS | low polyreactivity |
| QVQLVESGGGLVQAGGSLRLSCAASGFIFRYYAMGWYRQAPGKERELVAAISGNGGNTYYADSVKGRFTISRDNAKNTVYLQMNSLKPEDTAVYNCNRAPGYRGGRYDYWGQGTQVTVSS | high polyreactivity |
| QVQLVESGGGLVQAGGSLRLSCAASGRILTPYTMGWYRQAPGKERELVAAISKRGTSTHYADSVKGRFTISRDNAKNTVYLLMNSLKPEDTAVYYCNAVYRSSQYDYWGQGTQVTVSS | high polyreactivity |
| QVQLVESGGGLVQAGGSLRLSCAASGRIFTYYAMGWYRQVPGKERELVAGISGSGTSTYYADSVKGRFTISRDNAKNTVYLQMNSLKPEDTAVYYCAAIRRQKGLWDYYYWGQGTQVTVSS | low polyreactivity |
| QVQLVESGGGLVQAGGSLRLSCAASGFTFAKYAMGWYRQAPGKERELVAAISSSGGRTYYADSVKGRFTISRDNAKNTVYLQMNSLKPEDTAVYYCAAAIRYRNYVYLYDYWGQGTQVTVSS | high polyreactivity |
| QVQLVESGGGLGQAGGSLRLSCAASGSIFITYAMGWYRQAPGKERELVAAIRRGGRTNYADSVKGRFTISRDNAKNTVYLQMNSLKPEDTAVYYCAAEFRTGWPYYPDYAYDYWGQGSQVTVSS | low polyreactivity |
| QVQLEESGGGLVQAGGSLRLSCAASGSNAMGWYRQAPGKERELVAVITSRGGSTYYADSVKGRFTISRDNAKNTVYLQMNSLKPEDTAVYYCAKAWYVRGTWSVHVRYGYWGQGTQVTVSS | high polyreactivity |
| QVHLVESGGGLVQAGGSLRLSCAASGFIFISNSMGCYRQEPGKERELVARISDTDRTHYADSVKGRFTISRDNAKNTVYLQMNSQNPEDTAVYSCATDQSLLDKVYYDVQYDFWGQGTQVTVSS | low polyreactivity |
| QVQLVESGGGLVQAGGSLRLSCAPSGRIFYPYAMGWYRQAPGKERELVAAISSRGDSTYYADSVKGRFTISRDNAKNTVYLQMNSLKPEDSAVYYCAAVYGSFPTRLYYWGQGTQVTVSS | high polyreactivity |
| QVQLVESGGGLVQAGGSLRLSCAASGFISRKNAMGWYRQAPGKERELVAAISKSGGRTYYADSVKGRFTISRDNAKNTVYLQMNSLKPEDTAVYYCNRVPRDSWPYAWYDYWGQGTQVTVSS | high polyreactivity |
| QVQLVESGGGLVQAGGSLRLSCAASGRIFSPNAMGWYRQAPGKERELVAVSSWRGVSTYFADSVKGRFTISRDNAKNTVYLQMNSLKPEDTAVYYCAVDNKSVYYWRQYYYWGQGTQVTVSS | high polyreactivity |
| QVQLVESGGGLVQAGGSLRLSCAASGYTFDTKAMGWYRLAPGKERELVAAISRIGGRTYADSVKGRFTISRDNAKNTVYLQMNSLKPEDTAVYYGAADTTWYPYGYDSWGQGTPVTVSS | low polyreactivity |
| QVQLVESGGGLVKSGGSLRLSCAASGRIFYLYAMGWYRQAPGKERELVAAISRRGGGTSYADSVKGRFTISRDNAKNTVYFQMNSLKPEDTAVYYCNTAYSLGGYWGQGTQVTVSS | high polyreactivity |
| QVQLVESGGGLVQAGGSLRLSCAASGLTFIGYVMGWYRQAPGKERELVAAISGSGGSTYYADSVKGRFTISRDNAKNTVYLQMNSLKPEDTAVYYCAARSRVLTRYDYWGQGTQVTVSS | high polyreactivity |
| QVQLVESGGGLVQAGGSLRLSCAASGRTFLRYAMGWYRQAPGKERELVAAISWSGGRTYYADSVKGRFTISRDNAKNTVYLQMNSLKPEDTAVYYCNKVVLYGAHYYYWGQGTQVTVSS | high polyreactivity |
| QVQLVESGGGLVQAGGSLRLSCAASGSIFFVYAMGWYRQAPGKERELVAAITWSGGRTYYADSVKGRFTISRDNAKNTVYLQMNSLKPEDTAVYYCAARKYSDYFTPRYYYWGQGTQVTVSS | high polyreactivity |
| QVQLVESGGGLVQAGGSLRLSCAASGRIFVYYAMGWYRPAPGKERELVATITETGGSTYYADSVKGRFTISRDNAKNTVYLQMNSLKPEDSAVYYCNADYWGTYGWDWYWYVYWGQGTQVTVSS | low polyreactivity |
| QVQLVESGGGLVQAGGSLRLSCAASGIIFGGYDMGWYRQAPGKERELVAAISWSGGSTYYADSVKGRFTISRDNAKNTVYLQMNSLKPEDTAVYYCAAAYYAPSRDYYYWGQGTQVTVSS | low polyreactivity |
